Consider 5 molecules from US20140221283A1 (INDIANA UNIVERSITY RESEARCH AND TECHNOLOGY, published 2014).

Sequences and labels used below:
B1: peptide of SEQ ID NO: 14 (peptide)
peptide: HSQGTFTSDKSKYLDERAAQDFVQWLLDTKX
modifications: lower-case 's' at position 2 (taken as D-Ser; the table does not explain it); Lys at position 10 acylated as K(γGlu-C16); C-terminal γGlu; C-terminal amide
B2: peptide of SEQ ID NO: 16 (peptide)
peptide: H[Aib]QGTFTSDK([γGlu-γGlu-Palmitoyl])SKYLD[Aib]RAAQDFVQWLLDTKQ-OH
modifications: N-terminus assumed
SMILES: CCCCCCCCCCCCCCCC(=O)N[C@@H](CCC(=O)N[C@@H](CCC(=O)NCCCC[C@H](NC(=O)[C@H](CC(=O)O)NC(=O)[C@H](CO)NC(=O)[C@@H](NC(=O)[C@H](Cc1ccccc1)NC(=O)[C@@H](NC(=O)CNC(=O)[C@H](CCC(N)=O)NC(=O)C(C)(C)NC(=O)[C@@H](N)Cc1c[nH]cn1)[C@@H](C)O)[C@@H](C)O)C(=O)N[C@@H](CO)C(=O)N[C@@H](CCCCN)C(=O)N[C@@H](Cc1ccc(O)cc1)C(=O)N[C@@H](CC(C)C)C(=O)N[C@@H](CC(=O)O)C(=O)NC(C)(C)C(=O)N[C@@H](CCCNC(=N)N)C(=O)N[C@@H](C)C(=O)N[C@@H](C)C(=O)N[C@@H](CCC(N)=O)C(=O)N[C@@H](CC(=O)O)C(=O)N[C@@H](Cc1ccccc1)C(=O)N[C@H](C(=O)N[C@@H](CCC(N)=O)C(=O)N[C@@H](Cc1c[nH]c2ccccc12)C(=O)N[C@@H](CC(C)C)C(=O)N[C@@H](CC(C)C)C(=O)N[C@@H](CC(=O)O)C(=O)N[C@H](C(=O)N[C@@H](CCCCN)C(=O)N[C@@H](CCC(N)=O)C(=O)O)[C@@H](C)O)C(C)C)C(=O)O)C(=O)O
B3: peptide of SEQ ID NO: 15 (peptide)
peptide: H[Aib]QGTFTSDK([γGlu-γGlu-Palmitoyl])SKYLD[Aib]RAAQDFVQWL[Met(O)]DTKQ-OH
modifications: not fully specified; printed as HaibQGTFTSDK(γGlu-γGlu-C16)SKYLDaibRAAQDFVQWLMornDTKQ-acid

*1 amine or outer side, *2 acyl side, *3 side chain or, on linkers, in order; H or OH if unused. Where no end group is shown, it is not given here. Side-chain parts run from the residue outwards. [ ]: non-standard residue; d: D form. The star is where a group is joined. γGlu = O=C(O)[C@H](CCC(=O)[*:2])N[*:1]; Palmitoyl = CCCCCCCCCCCCCCCC(=O)*; Met(O) = CS(=O)CC[C@H](N)C(=O)O; Aib = CC(C)(N)C(=O)O

The test has as its target T1, GIP receptor (assay by the procedure of Example 3).
T1 sequence (P48546 whole entry, species assumed, looked up): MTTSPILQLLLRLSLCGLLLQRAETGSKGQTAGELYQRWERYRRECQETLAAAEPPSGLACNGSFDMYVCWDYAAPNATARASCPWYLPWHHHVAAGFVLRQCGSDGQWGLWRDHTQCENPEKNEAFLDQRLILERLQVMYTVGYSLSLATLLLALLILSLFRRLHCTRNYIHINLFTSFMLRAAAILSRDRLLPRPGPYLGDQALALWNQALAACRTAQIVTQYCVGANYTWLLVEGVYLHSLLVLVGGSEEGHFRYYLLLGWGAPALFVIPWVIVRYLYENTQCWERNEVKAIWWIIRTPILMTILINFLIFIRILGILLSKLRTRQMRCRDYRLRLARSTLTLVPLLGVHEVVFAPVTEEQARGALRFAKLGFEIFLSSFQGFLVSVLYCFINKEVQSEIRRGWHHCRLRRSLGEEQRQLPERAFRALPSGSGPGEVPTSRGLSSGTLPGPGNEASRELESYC
Description: cell-based or functional assay.
For B1, the “EC50 (nM) at GIP receptor (procedure of Example 3)” value came to 976 nM. The same measure for H[Aib]QGTFTSDYSKYLDERRA[Aib]EFVC(40K‑TE PEG)WLLDTK[γGlu]-NH2 [peptide of SEQ ID NO: 13]: 140 nM. The same measure for B2: 1.04 nM; for H[Aib]QGTFTSDK([γGlu-γGlu-Palmitoyl])SKYLD[Aib]RAAQDFVQWLMDTK[γGlu]-NH2 [peptide of SEQ ID NO: 12]: 12.8 nM; for B3: 1.9 nM.
